{
  "source": "patent US9192657B2",
  "binders": {"B1": {"name": "KKK191-193AAA-APC (enzyme)", "chain": "ANSFLEELRHSSLERECIEEICDFEEAKEIFQNVDDTLAFWSKHVDGDQCLVLPLEHPCASLCCGHGTCIDGIGSFSCDCRSGWEGRFCQREVSFLNCSLDNGGCTHYCLEEVGWRRCSCAPGYKLGDDLLQCHPAVKFPCGRPWKRMEKKRSHLKRDTEDQEDQVDPRLIDGKMTRRGDSPWQVVLLDSAAALACGAVLIHPSWVLTAAHCMDESKKLLVRLGEYDLRRWEKWELDLDIKEVFVHPNYSKSTTDNDIALLHLAQPATLSQTIVPICLPDSGLAERELNQAGQETLVTGWGYHSSREKEAKRNRTFVLNFIKIPVVPHNECSEVMSNMVSENMLCAGILGDRQDACEGDSGGPMVASFHGTWFLVGLVSWGEGCGLLHNYGVYTKVSRYLDWIHGHIRDKEAPQKSWAP"}},
  "biological_target": "T1, PAR-1 N-terminal tail peptide (TR33-62) (artificial)",
  "T1 sequence (peptide)": "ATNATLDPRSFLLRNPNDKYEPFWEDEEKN",
  "data": [
    {"binder": "B1", "values": [
      {"measurement": "PAR-1 peptide (TR33-62) cleavage (% rwt-APC), catalytic efficiency by HPLC", "value": 88, "unit": "% rwt-APC"}
    ]}
  ]
}
